Legend:
[1] = target: Hoxd13 (expressed in transfected cells) (UniProt P70217)
[2] = target: Hoxd13 (expressed in transfected cells) (UniProt P70217 1-339); assay: cell-based or functional assay
Hoxd13 (expressed in transfected cells) (UniProt P70217 1-339), sequence (P70217 whole entry): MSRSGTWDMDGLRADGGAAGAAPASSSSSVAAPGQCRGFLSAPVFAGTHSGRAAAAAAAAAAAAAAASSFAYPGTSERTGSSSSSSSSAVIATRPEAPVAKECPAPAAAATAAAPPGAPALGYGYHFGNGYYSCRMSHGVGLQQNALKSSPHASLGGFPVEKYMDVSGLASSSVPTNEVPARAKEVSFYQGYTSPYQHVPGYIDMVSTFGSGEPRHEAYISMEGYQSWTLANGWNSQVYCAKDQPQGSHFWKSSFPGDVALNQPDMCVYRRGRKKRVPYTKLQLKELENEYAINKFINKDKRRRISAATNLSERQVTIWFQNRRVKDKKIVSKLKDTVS

Hoxd13 (expressed in transfected cells) (UniProt P70217), sequence (P70217 whole entry): as above

Molecule “Gli3 repressor isoform (Gli3R), Myc-epitope tagged (domain or fragment)” has a repression by co-expressed Gli3R of Hand2-Hoxd13 mediated transactivation of the ZRS-Luc reporter in NIH3T3 cells [1] of 50%.

B1: Hand2, Flag-epitope tagged (natural protein, UniProt Q61039 1-217, looked up)
chain: MSLVGGFPHHPVVHHEGYPFAAAAAAAAAAAASRCSHEENPYFHGWLIGHPEMSPPDYSMALSYSPEYASGAAGLDHSHYGGVPPGAGPPGLGGPRPVKRRGTANRKERRRTQSINSAFAELRECIPNVPADTKLSKIKTLRLATSYIAYLMDLLAKDDQNGEAEAFKAEIKKTDVKEEKRKKELNEILKSTVSSNDKKTKGRTGWPQHVWALELKQ
For B1, the “luciferase activity of the ZRS-Luc reporter in NIH3T3 cells on co-transfection of Hand2 and Hoxd13 (basal activity set to 1; Hand2 alone ∼3-fold, Hoxd13 alone ∼6.5-fold)” value [2] was roughly 10.5 fold.
